For the assay, the target named is α-thrombin. Briefly: cell-based or functional assay.

Take “human heparin cofactor II 60-sTyr-73-sTyr (from UniProt P05546 20-499)”: the maximal second-order rate constant (k2) of thrombin inhibition, at ~20 µg/mL heparin was found to be 5e+06 M⁻¹ s⁻¹.

The record behind these values is patent US20220119793A1.
